For experiment [1], the target named is HPV 33 L1 aa 10–499 (human papillomavirus type 33) (UniProt P06416). Description: cryo-EM structure; purified VLPs at ~3 mg/mL vitrified on Quantifoil holey carbon grids; FEI TF30 at 300 kV; T = 7 particle images boxed manually; pentamers to VLP.
Experiment [2] shares this target. Description: not stated; purified L1 under reducing conditions (Fig. S4); about ~8 nm in diameter; monomers to pentamer.
The target in experiment [3] is HPV 45 L1 aa 1–513 (human papillomavirus type 45). Description: cryo-EM structure; purified VLPs at ~3 mg/mL vitrified on Quantifoil holey carbon grids; FEI TF30 at 300 kV; T = 7 particle images boxed manually; pentamers to VLP.
Experiment [4] shares this target. The experiment is described as follows: not stated; purified L1 under reducing conditions (Fig. S4); about ~8 nm in diameter; monomers to pentamer.
Experiment [5] addresses HPV 52 L1 aa 15–503 (human papillomavirus type 52). The experiment is described as follows: cryo-EM structure; purified VLPs at ~3 mg/mL vitrified on Quantifoil holey carbon grids; FEI TF30 at 300 kV; T = 7 particle images boxed manually; pentamers to VLP.
Experiment [6] has the same target. Description: not stated; purified L1 under reducing conditions (Fig. S4); about ~8 nm in diameter; monomers to pentamer.
The target of experiment [7] is HPV 58 L1 aa 10–498 (human papillomavirus type 58). Description: cryo-EM structure; purified VLPs at ~3 mg/mL vitrified on Quantifoil holey carbon grids; FEI TF30 at 300 kV; T = 7 particle images boxed manually; pentamers to VLP.
Experiment [8] has the same target. The experiment is described as follows: not stated; purified L1 under reducing conditions (Fig. S4); about ~8 nm in diameter; monomers to pentamer.

In turn, “HPV 33 L1 aa 10–499 (from UniProt P06416 10-499) (domain or fragment)” displayed a stoichiometry N (pentamers per particle) in experiment [1] of 72. Also, in experiment [2], the stoichiometry N (in general, a count of units in the complex or per binding partner) amounted to 5.

With HPV 45 L1 aa 1–513 (natural protein), in experiment [3], the stoichiometry N (pentamers per particle) came to 72. In experiment [4], this substance returned a stoichiometry N of 5.

As to “HPV 52 L1 aa 15–503 (domain or fragment)”, the stoichiometry N (pentamers per particle) in experiment [5] was 72. The stoichiometry N in experiment [6] was 5.

For the substance “HPV 58 L1 aa 10–498 (domain or fragment)”, in experiment [7], the stoichiometry N (pentamers per particle) came to 72. Further, the stoichiometry N in experiment [8] worked out at 5.
